Assay results: patent publication US20240252628A1 (ACCELERON PHARMA, published 2024)

T1: GDF3 (UniProt Q9NR23 251-364)
T1 sequence (looked up): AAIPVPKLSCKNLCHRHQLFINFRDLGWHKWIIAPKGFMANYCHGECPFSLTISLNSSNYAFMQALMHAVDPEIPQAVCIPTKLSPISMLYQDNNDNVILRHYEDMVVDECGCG

T2: activin C (UniProt P55103 237-352)
T2 sequence (looked up): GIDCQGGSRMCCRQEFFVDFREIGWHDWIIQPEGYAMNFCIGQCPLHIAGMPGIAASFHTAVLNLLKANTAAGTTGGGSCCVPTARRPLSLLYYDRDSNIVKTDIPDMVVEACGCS

T3: BMP9 (UniProt Q9UK05 320-429)
T3 construct: also called GDF2
T3 sequence (looked up): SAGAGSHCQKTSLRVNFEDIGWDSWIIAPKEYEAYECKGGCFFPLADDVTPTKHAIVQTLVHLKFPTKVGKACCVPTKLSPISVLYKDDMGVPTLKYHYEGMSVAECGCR

T4: GDF8 (UniProt O14793 267-375)
T4 construct: also called myostatin
T4 sequence (looked up): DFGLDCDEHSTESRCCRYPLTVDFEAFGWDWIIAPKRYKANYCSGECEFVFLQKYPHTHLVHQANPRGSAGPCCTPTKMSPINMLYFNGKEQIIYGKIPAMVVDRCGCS

T5: BMP6 (UniProt P22004 382-513, limits assumed)
T5 sequence (looked up): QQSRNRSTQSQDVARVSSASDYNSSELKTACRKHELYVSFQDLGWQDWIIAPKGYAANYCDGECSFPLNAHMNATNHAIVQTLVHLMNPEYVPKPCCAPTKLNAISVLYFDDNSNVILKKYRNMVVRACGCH

T6: activin A (UniProt P08476 311-426)
T6 construct: The same holds for m2-m11
T6 sequence (looked up): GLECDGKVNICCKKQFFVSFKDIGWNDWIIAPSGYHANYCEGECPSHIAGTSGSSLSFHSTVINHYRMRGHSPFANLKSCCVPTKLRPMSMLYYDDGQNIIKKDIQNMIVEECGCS

T7: BMP5 (UniProt P22003 317-454, limits assumed)
T7 sequence (looked up): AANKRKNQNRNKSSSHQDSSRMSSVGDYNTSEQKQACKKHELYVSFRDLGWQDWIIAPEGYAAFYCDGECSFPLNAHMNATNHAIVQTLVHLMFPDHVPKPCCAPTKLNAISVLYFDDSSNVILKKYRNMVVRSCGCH

T8: activin AC (UniProt P08476 311-426; P55103 237-352)
T8 sequence (looked up) 1: T6 sequence (looked up)
T8 sequence (looked up) 2: T2 sequence (looked up)

T9: activin B (UniProt P09529 293-407)
T9 sequence (looked up): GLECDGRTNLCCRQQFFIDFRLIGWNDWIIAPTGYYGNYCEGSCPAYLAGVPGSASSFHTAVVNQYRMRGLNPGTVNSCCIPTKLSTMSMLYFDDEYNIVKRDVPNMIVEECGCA

B1: ActRIIB-Fc:ALK7-Fc heterodimer (Fc fusion)
chain 1: GRGEAETRECIYYNANWELERTNQSGLERCEGEQDKRLHCYASWRNSSGTIELVKKGCWLDDFNCYDRQECVATEENPQVYFCCCEGNFCNERFTHLPEAGGPEVTYEPPPTAPTGGGTHTCPPCPAPELLGGPSVFLFPPKPKDTLMISRTPEVTCVVVDVSHEDPEVKFNWYVDGVEVHNAKTKPREEQYNSTYRVVSVLTVLHQDWLNGKEYKCKVSNKALPAPIEKTISKAKGQPREPQVYTLPPSRKEMTKNQVSLTCLVKGFYPSDIAVEWESNGQPENNYKTTPPVLKSDGSFFLYSKLTVDKSRWQQGNVFSCSVMHEALHNHYTQKSLSLSPGK
chain 2: GLKCVCLLCDSSNFTCQTEGACWASVMLTNGKEQVIKSCVSLPELNAQVFCHSSNNVTKTECCFTDFCNNITLHLPTASPNAPKLGPMETGGGTHTCPPCPAPELLGGPSVFLFPPKPKDTLMISRTPEVTCVVVDVSHEDPEVKFNWYVDGVEVHNAKTKPREEQYNSTYRVVSVLTVLHQDWLNGKEYKCKVSNKALPAPIEKTISKAKGQPREPQVYTLPPSREEMTKNQVSLTCLVKGFYPSDIAVEWESNGQPENNYDTTPPVLDSDGSFFLYSDLTVDKSRWQQGNVFSCSVMHEALHNHYTQKSLSLSPG
notes: also called ActRIIB-Fc:ALK7 heterodimer; ActRIIB-Fc:ALK7-Fc heterodimeric complex
B2: BMP10 (ligand, UniProt O95393 317-424, looked up)
chain: NAKGNYCKRTPLYIDFKEIGWDSWIIAPPGYEAYECRGVCNYPLAEHLTPTKHAIIQALVHLKNSQKASKACCVPTKLEPISILYLDKGVVTYKFKYEGMAVSECGCR
B3: GDF11 (ligand, UniProt O95390 299-407, looked up)
chain: NLGLDCDEHSSESRCCRYPLTVDFEAFGWDWIIAPKRYKANYCSGQCEYMFMQKYPHTHLVQQANPRGSAGPCCTPTKMSPINMLYFNDKQQIIYGKIPGMVVDRCGCS
notes: also called BMP11

Key:
GDF3 = target: T1, GDF3; test: SPR (Biacore), anti-Fc capture of receptor
Procedure: (§1) A Biacore™-based binding assay was used to compare ligand binding selectivity of the ActRIIB-Fc:ALK7-Fc heterodimeric complex described above with that of ActRIIB-Fc and ALK7-Fc homodimeric complexes. The ActRIIB-Fc:ALK7-Fc heterodimer, ActRIIB-Fc homodimer, and ALK7-Fc homodimer were independently captured onto the system using an anti-Fc antibody. Ligands were injected and allowed to flow over the captured receptor protein. Results are summarized in the table below, in which ligand off-rates (kd) most indicative of effective ligand traps are denoted by in bold.

activin C = target: T2, activin C; test: SPR (Biacore), anti-Fc capture of receptor
Procedure: as §1

BMP9 = target: T3, BMP9; test: SPR (Biacore), anti-Fc capture of receptor
Procedure: as §1

GDF8 = target: T4, GDF8; test: SPR (Biacore), anti-Fc capture of receptor
Procedure: as §1

GDF11 = target: B3; test: SPR (Biacore), anti-Fc capture of receptor
Procedure: as §1

BMP6 = target: T5, BMP6; test: SPR (Biacore), anti-Fc capture of receptor
Procedure: as §1

activin A = target: T6, activin A; test: SPR (Biacore), anti-Fc capture of receptor
Procedure: as §1

BMP5 = target: T7, BMP5; test: SPR (Biacore), anti-Fc capture of receptor
Procedure: as §1

BMP10 = target: B2; test: SPR (Biacore), anti-Fc capture of receptor
Procedure: as §1

activin AC = target: T8, activin AC; test: SPR (Biacore), anti-Fc capture of receptor
Procedure: as §1

activin B = target: T9, activin B; test: SPR (Biacore), anti-Fc capture of receptor
Procedure: as §1

ActRIIA-mFc [1] = target: T10, ActRIIA-mFc (human, UniProt P27037 21-135); test: similar binding assay (SPR)
T10 construct: not shown: minimal linker and mouse Fc domain
T10 sequence (P27037 21-135): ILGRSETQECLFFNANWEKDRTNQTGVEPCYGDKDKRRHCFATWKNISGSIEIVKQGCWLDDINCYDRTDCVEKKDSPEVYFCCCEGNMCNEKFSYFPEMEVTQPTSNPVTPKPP
Procedure: (§2) GDF11 or activin A were immobilized on a Biacore™ CM5 chip using standard amine-coupling procedure. ActRIIA-hFc and ActRIIA-mFc proteins were loaded onto the system, and binding was measured. […] See FIG. 15A-B. Using a similar binding assay, ActRIIA-hFc was determined to have high to moderate affinity for other TGF-beta superfamily ligands including, for example, activin B, GDF8, BMP6, and BMP10. ActRIIA-mFc behaved similarly.

ActRIIA-mFc [2] = target: T10, ActRIIA-mFc; test: SPR (Biacore), ligand amine-coupled on CM5 chip
Procedure: as §2

Binder: B1
Kd (GDF3): 4500 pM
koff (GDF3): 0.01 s⁻¹
kon (GDF3): 2.3e+06 M⁻¹ s⁻¹
Kd (activin C): 6900 pM
koff (activin C): 0.0024 s⁻¹
kon (activin C): 350000 M⁻¹ s⁻¹
Kd (BMP9): > 1400 pM
Kd (GDF8): 270 pM
koff (GDF8): 0.001 s⁻¹
kon (GDF8): 3.7e+06 M⁻¹ s⁻¹
Kd (GDF11): 8 pM
koff (GDF11): 0.00075 s⁻¹
kon (GDF11): 9.5e+07 M⁻¹ s⁻¹
Kd (BMP6): 5300 pM
koff (BMP6): 0.0063 s⁻¹
kon (BMP6): 1.2e+06 M⁻¹ s⁻¹
Kd (activin A): 43 pM
koff (activin A): 0.0019 s⁻¹
kon (activin A): 4.4e+07 M⁻¹ s⁻¹
Kd (BMP5): 57000 pM
koff (BMP5): 0.0085 s⁻¹
kon (BMP5): 150000 M⁻¹ s⁻¹
Kd (BMP10): 190 pM
koff (BMP10): 0.0028 s⁻¹
kon (BMP10): 1.5e+07 M⁻¹ s⁻¹
Kd (activin AC): 220 pM
koff (activin AC): 0.00057 s⁻¹
kon (activin AC): 2.6e+06 M⁻¹ s⁻¹
Kd (activin B): 17 pM
koff (activin B): 0.0002 s⁻¹
kon (activin B): 1.2e+07 M⁻¹ s⁻¹

Binder: B2
binding result (ActRIIA-mFc [1]): binds

Binder: B3
binding result (ActRIIA-mFc [2]): binds
